The source of these data is IntAct's records for PubMed 25910212.

The labels stand for the following.
B1: Estrogen receptor beta (Homo sapiens), Q92731-3 (parent)
chain: MDIKNSPSSLNSPSSYNCSQSILPLEHGSIYIPSSYVDSHHEYPAMTFYSPAVMNYSIPSNVTNLEGGPGRQTTSPNVLWPTPGHLSPLVVHRQLSHLYAEPQKSPWCEARSLEHTLPVNRETLKRKVSGNRCASPVTGPGSKRDAHFCAVCSDYASGYHYGVWSCEGCKAFFKRSIQGHNDYICPATNQCTIDKNRRKSCQACRLRKCYEVGMVKCGSRRERCGYRLVRRQRSADEQLHCAGKAKRSGGHAPRVRELLLDALSPEQLVLTLLEAEPPHVLISRPSAPFTEASMMMSLTKLADKELVHMISWAKKIPGMRGNA
B2: Tumor necrosis factor receptor superfamily member 13B (Homo sapiens), O14836-2 (parent)
chain: MSGLGRSRRGGRSRVDQEERWSLSCRKEQGKFYDHLLRDCISCASICGQHPKQCAYFCENKLRSPVNLPPELRRQRSGEVENNSDNSGRYQGLEHRGSEASPALPGLKLSADQVALVYSTLGLCLCAVLCCFLVAVACFLKKRGDPCSCQPRSRPRQSPAKSSQDHAMEAGSPVSTSPEPVETCSFCFPECRAPTQESAVTPGTPDPTCAGRWGCHTRTTVLQPCPHIPDSGLGIVCVPAQEGGPGA
B3: Alpha-sarcoglycan (Homo sapiens), Q16586 (parent)
chain: MAETLFWTPLLVVLLAGLGDTEAQQTTLHPLVGRVFVHTLDHETFLSLPEHVAVPPAVHITYHAHLQGHPDLPRWLRYTQRSPHHPGFLYGSATPEDRGLQVIEVTAYNRDSFDTTRQRLVLEIGDPEGPLLPYQAEFLVRSHDAEEVLPSTPASRFLSALGGLWEPGELQLLNVTSALDRGGRVPLPIEGRKEGVYIKVGSASPFSTCLKMVASPDSHARCAQGQPPLLSCYDTLAPHFRVDWCNVTLVDKSVPEPADEVPTPGDGILEHDPFFCPPTEAPDRDFLVDALVTLLVPLLVALLLTLLLAYVMCCRREGRLKRDLATSDIQMVHHCTIHGNTEELRQMAASREVPRPLSTLPMFNVHTGERLPPRVDSAQVPLILDQH

The variants in the first experiment derive from B1. To be noted: with tfcp2_human TFCP2, Q12800.
Chain of tfcp2_human TFCP2, Q12800 (Q12800 whole entry): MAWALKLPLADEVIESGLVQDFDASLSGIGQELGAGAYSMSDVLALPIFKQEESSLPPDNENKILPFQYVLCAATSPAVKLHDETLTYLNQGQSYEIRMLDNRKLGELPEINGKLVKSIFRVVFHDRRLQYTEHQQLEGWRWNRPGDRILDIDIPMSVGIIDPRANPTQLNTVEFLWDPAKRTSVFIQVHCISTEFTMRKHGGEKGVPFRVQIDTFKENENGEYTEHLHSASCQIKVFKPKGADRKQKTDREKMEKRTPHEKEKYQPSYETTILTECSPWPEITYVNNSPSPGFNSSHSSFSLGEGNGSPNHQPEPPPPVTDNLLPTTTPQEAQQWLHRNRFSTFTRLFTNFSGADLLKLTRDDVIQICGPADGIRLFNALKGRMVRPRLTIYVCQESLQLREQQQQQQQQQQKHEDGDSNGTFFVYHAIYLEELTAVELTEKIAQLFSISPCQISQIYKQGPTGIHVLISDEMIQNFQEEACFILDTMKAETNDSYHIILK
For the variant MDIKNSPSSLNSPSSYNCSQSILPLEHGSIYIPSSYVDSHHEYPAMTFYSPAVMNYSIPSNVTNLEGGPGRQTTSPNVLWPTPGHLSPLVVHRQLSHLYAEPQKSPWCEARSLEHTLPVNRETLKRKVSGNRCASPVTGPGSKRDAHFCAVCSDYASGYHYGVWSCEGCKAFFKRSIQGHNDYICPATNQCTIDKNRRKSCQACRLRKCYEVGMVKCGSRRERCGYRLVRRQRSADEQLHCAGKAKRSGGHAPRVRELLLDALSPEQLVLTLLEAEPPHVLISRPSAPLTEASMMMSLTKLADKELVHMISWAKKIPGMRGNA [F289L], the “effect of a mutation on the interaction” value is “causing an interaction”.

Variants of B1 are the subject of a further experiment. To be noted: with mdfi_human MDFI.
As to MDIKNSPSSLNSPSSYNCSQSILPLEHGSIYIPSSYVDSHHEYPAMTFYSPAVMNYSIPSNVTNLEGGPGRQTTSPNVLWPTPGHLSPLVVHRQLSHLYAEPQKSPWCEARSLEHTLPVNRETLKRKVSGNRCASPVTGPGSKRDAHFCAVCSDYASGYHYGVWSCEGCKAFFKRSIQGHNDYICPATNQCTIDKNRRKSCQACRLRKCYEVGMVKCGSRRERCGYRLVRRQRSADEQLHCAGKAKRSGGHAPRVRELLLDALSPEQLVLTLLEAEPPHVLISRPSAPLTEASMMMSLTKLADKELVHMISWAKKIPGMRGNA [F289L], the “effect of a mutation on the interaction” value is “causing an interaction”.

The next experiment covers variants of B2. To be noted: with sgta_human SGTA.
Target sequence in this assay (O43765 whole entry): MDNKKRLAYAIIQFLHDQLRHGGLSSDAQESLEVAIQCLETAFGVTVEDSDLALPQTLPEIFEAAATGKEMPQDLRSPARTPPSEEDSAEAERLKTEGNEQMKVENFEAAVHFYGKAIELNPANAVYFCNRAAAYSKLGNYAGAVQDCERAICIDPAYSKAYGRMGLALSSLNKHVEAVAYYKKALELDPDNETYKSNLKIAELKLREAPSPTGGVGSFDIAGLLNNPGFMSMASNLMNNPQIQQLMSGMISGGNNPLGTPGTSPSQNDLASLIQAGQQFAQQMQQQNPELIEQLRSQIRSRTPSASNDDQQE
Turning to MSGLGRSRRGGRSRVDQEERWSLSCRKEQGKFYDHLLRDCISCASICGQHPKQCAYFCENKLRSPVNLPPELRRQRSGEVENNSDNSGRYQGLEHRGSEASPALPGLKLSADQVALVYSTLGLCLCAVLCCFLVAVACFLKKRGDPCSCQPRSRPRQSPAKSSQDHAMEAGSPVSTSPEPVETCSFCFPECRAPTQESAVTPGTLDPTCAGRWGCHTRTTVLQPCPHIPDSGLGIVCVPAQEGGPGA [P205L], the “effect of a mutation on the interaction” value is listed as “with no effect”.

MSGLGRSRRGGRSRVDQEERWSLSCRKEQGKFYDHLLRDCISCASICGQHPKQCAYFCENKLRSPVNLPPELRRQRSGEVENNSDNSGRYQGLEHRGSEASPALPGLKLSADQVALVYSTLGLCLCAVLCCFLVAVACFLKMRGDPCSCQPRSRPRQSPAKSSQDHAMEAGSPVSTSPEPVETCSFCFPECRAPTQESAVTPGTPDPTCAGRWGCHTRTTVLQPCPHIPDSGLGIVCVPAQEGGPGA [K142M]: the “effect of a mutation on the interaction” value is listed as “with no effect”.

Turning to MSGLGRSRRGGRSRVDQEERWSLSCRKEQGKFYDHLLRDCISCASICGQHPKQCAYFRENKLRSPVNLPPELRRQRSGEVENNSDNSGRYQGLEHRGSEASPALPGLKLSADQVALVYSTLGLCLCAVLCCFLVAVACFLKKRGDPCSCQPRSRPRQSPAKSSQDHAMEAGSPVSTSPEPVETCSFCFPECRAPTQESAVTPGTPDPTCAGRWGCHTRTTVLQPCPHIPDSGLGIVCVPAQEGGPGA [C58R], the “effect of a mutation on the interaction” value is “with no effect”.

With MSGLGRSRRGGRSRVDQEERWSLSCRKEQGKFYDHLLRDCISCASICGQHPKQCAYFCENKLRSPVNLPPELRRQRSGEVENNSDNSGRYQGLEHRGSEASPALPGLKLSADQVALVYSTLGLCLCAVLCCFLVAVACFLKKRGDPCSCQPRSRPRQSPAKSSQDHAMEAGSPASTSPEPVETCSFCFPECRAPTQESAVTPGTPDPTCAGRWGCHTRTTVLQPCPHIPDSGLGIVCVPAQEGGPGA [V174A], the “effect of a mutation on the interaction” value was “with no effect”.

On to MSGLGRSRRGGRSRVDQEERWSLSCRKEQGKFYDHLLRDCISCASICGQHPKQCAYFCENKLRSPVNLPPELRRQRSGEVENNSDNSGRYQGLEHRGSEASPTLPGLKLSADQVALVYSTLGLCLCAVLCCFLVAVACFLKKRGDPCSCQPRSRPRQSPAKSSQDHAMEAGSPVSTSPEPVETCSFCFPECRAPTQESAVTPGTPDPTCAGRWGCHTRTTVLQPCPHIPDSGLGIVCVPAQEGGPGA [A103T], for which the “effect of a mutation on the interaction” value was “with no effect”.

The variants in another experiment derive from B3. To be noted: with sgta_human SGTA.
Target sequence in this assay (O43765 whole entry): as the sequence (O43765 whole entry) above
As for MAETLFWTPLLVVLLAGLGDTEAQQTTLHPLVGRVFVHTLDHETFLSLPEHVAVPPAVHITYHAHLQGHPDLPRWLRYTQRSPHHPGFLYGSATPEDRGLQVIEVTAYNRDSFDTTRQRLVLEIGDPEGPLLPYQAEFLVRSHDAEEVLPSTPASRFLSALGGLWEPGELQLLNVTSALDRGGRVPLPIEGRKEGVYIKVGSASPFSICLKMVASPDSHARCAQGQPPLLSCYDTLAPHFRVDWCNVTLVDKSVPEPADEVPTPGDGILEHDPFFCPPTEAPDRDFLVDALVTLLVPLLVALLLTLLLAYVMCCRREGRLKRDLATSDIQMVHHCTIHGNTEELRQMAASREVPRPLSTLPMFNVHTGERLPPRVDSAQVPLILDQH [T208I], the “effect of a mutation on the interaction” value is recorded as “with no effect”.

On to MAETLFWTPLLVVLLAGLGDTEAQQTTLHPLVGRVFVHTLDHETFLSLPEHVAVPPAVHITYHAHLQGHPDLPRWLRYTQRSPHHPGFLYGSATPEDHGLQVIEVTAYNRDSFDTTRQRLVLEIGDPEGPLLPYQAEFLVRSHDAEEVLPSTPASRFLSALGGLWEPGELQLLNVTSALDRGGRVPLPIEGRKEGVYIKVGSASPFSTCLKMVASPDSHARCAQGQPPLLSCYDTLAPHFRVDWCNVTLVDKSVPEPADEVPTPGDGILEHDPFFCPPTEAPDRDFLVDALVTLLVPLLVALLLTLLLAYVMCCRREGRLKRDLATSDIQMVHHCTIHGNTEELRQMAASREVPRPLSTLPMFNVHTGERLPPRVDSAQVPLILDQH [R98H], for which the “effect of a mutation on the interaction” value is reported as “with no effect”.

As to MAETLFWTPLLVVLLAGLGDTEAQQTTLHPLVGRVFVHTLDHETFLSLPEHVAVPPAVHITYHAHLQGHPDLPRWLRYTQRSPHHPGFLYGSATPEDRGLQVIEVTAYNRDSFDTTRQRLVLEIGDPEGPLLPYQAEFLVRSHDAEEVLPSTPASRFLSALGGLWEPGELQLLNVTSALDRGGRVPLPIEGRKEGVYIKVGSASPFSTCLKMVASPDSHARCAQGQPPLLSCYDTLAPHFRVDWCNVTLVDKSVPEPADEVPTPGDGILEHDPFFCPPTEAPDRDFLVDALVTLLVPLLVALLLTLLLAYVRCCRREGRLKRDLATSDIQMVHHCTIHGNTEELRQMAASREVPRPLSTLPMFNVHTGERLPPRVDSAQVPLILDQH [M312R], the “effect of a mutation on the interaction” value is “with no effect”.
